Consider 15 molecules from US20220282268A1 (UNIVERSITY COURT OF THE UNIVERSITY OF EDINBURGH, published 2022).

Numbering of substitutions follows the chain as printed.

Test [1] has as its target T1, C. reinhardtii Rubisco small subunit 1 (S1Cr), mature (Chlamydomonas reinhardtii, UniProt P00873 46-185).
T1 construct: also called RbcS1; Cre02.g120100.t1.2
The experiment in a line: yeast two-hybrid (FIG. 4J). Here is the method: (§1) Competent yeast cells (Y2H Gold, Clontech) were prepared from a 50 ml culture grown in YPDA medium supplemented with kanamycin (50 μg ml⁻¹). Cells were washed with ddH2O and a lithium acetate/TE solution (100 mM LiAc, 10 mM Tris-HCl [pH 7.5], 1 mM EDTA) before re-suspending in lithium acetate/TE solution. Cells were then co-transformed with binding and activation domain vectors by mixing 50 μl of competent cells with 1 μg of each plasmid vector and a PEG solution (100 mM LiAc, 10 mM Tris-HCl [pH 7.5], 1 mM EDTA, 40% [v/v] PEG 4000). Cells were incubated at 30° C. for 30 min, then subjected to a heat shock of 42° C. for 20 min. The cells were centrifuged, re-suspended in 500 μl YPDA and incubated at 30° C. for ca 90 min, then centrifuged and washed in TE (10 mM Tris-HCl [pH 7.5], 1 mM EDTA). The pellet was re-suspended in 200 μl TE, spread onto SD-L-W (standard dextrose medium (minimal yeast medium) lacking leucine and tryptophan, Anachem) and grown for 3 days at 30° C. Ten to fifteen of the resulting colonies were pooled per co-transformation and grown in a single culture for 24 hrs. The following day 1 ml of culture was harvested, cell density (OD₆₀₀) measured, centrifuged and then diluted in TE to give a final OD₆₀₀ of 0.5 or 0.1.
(§2) Yeast cultures were then plated onto SD-L-W (yeast synthetic minimal media lacking leucine (L) and tryptophan (W)) and SD-L-W-H (yeast synthetic minimal media lacking L, W, and histidine(H)) (Anachem). Yeast expressing both binding and activation domain constructs was grown on SD-L-W to confirm presence of both plasmids. To assess interaction strength, yeast was plated onto SD-L-W-H with differing concentrations of the HIS3 inhibitor 3-aminotriazole (3-AT). These plates were then incubated for 3 days before assessing for presence or absence of growth, to perform a semi-quantitative yeast two-hybrid assay as in van Nues and Beggs (van Nues and Beggs, Genetics (2000) 157: 1451-1467). The same yeast transformation was used for each interaction study. Different colonies on the same yeast transformation plate were considered independent biological replicates (as for E. coli). Two biological replicates (top and bottom row for each interaction) were spotted from different liquid culture concentrations (0.5 and 0.1 OD). Each interaction experiment was performed at least twice.

For test [2], the target named is T1, C. reinhardtii Rubisco small subunit 1 …. The experiment in a line: yeast two-hybrid (FIG. 5E). The method, then: as §1, §2
Test [3] deals with 1AAt::YFP^N (A. thaliana SSU 1A fused at the C-terminus to YFP^N) (Arabidopsis thaliana, UniProt P10795 56-180). The experiment in a line: BiFC in N. benthamiana; a YFP signal was seen and is put down to self-assembly of the split YFP halves. Here is the method:
(§3) Bimolecular fluorescence complementation analysis (BiFC) was carried out to provide additional information about the EPYC1-Rubisco interaction in vivo. Three Rubisco SSUs (1AAt, S2Cr and 1AAtMOD) and EPYC1, each fused at the C-terminus to either YFP^N or YFP^C were transiently co-expressed in N. benthamiana (Walter, et al., Plant J. (2004) 40: 428-438).

The target of test [4] is T2, 1AAt::YFP^C (A. thaliana SSU 1A fused at the C-terminus to YFP^C) (Arabidopsis thaliana, UniProt P10795 56-180). The description is as above. Here is the method: as §3
Test [5] deals with T3, 1AAtMOD (α-helices): A. thaliana SSU 1A with its two α-helices replaced with C. reinhardtii α-helices (Arabidopsis thaliana with parts of …).
T3 construct: also called pGADT7_1AAtMOD(α-helices); hybrid 1A SSU
The experiment in a line: yeast two-hybrid (FIG. 5E). The method, then: as §1, §2

Test [6] addresses T2, 1AAt::YFP^C (A. thaliana SSU 1A fused …). The experiment in a line: BiFC in N. benthamiana. The method, then:
as §3

B1: EPYC1 N-terminus (N-ter) (other)
chain: MATISSMRVGAASRVVVSGRVKTVKVAARGSWRESSTATVQASRASSATNR
notes: also called pGBKT7_N-ter EPYC1
Regarding B1, in test [1], the binding result is recorded as “no binding”.

B2: EPYC1 N-terminus, first and second repeat regions (N-ter+2reps) (other)
chain: MATISSMRVGAASRVVVSGRVKTVKVAARGSWRESSTATVQASRASSATNRVSPTRSVLPANWRQELESLRNGNGSSSAASSAPAPARSSSASWRDAAPASSAPARSSSASKKAVTPSRSALPSNWKQELESLRSSSPAPASSAPAPARSSSASWRDAAPASSAPARSSSSKKA
notes: also called pGBKT7_N-ter + 2reps EPYC1
Turning to B2, the binding result in test [1] is reported as “binds”.

B3: synthetic EPYC1 2 α-helices 1 rep (first repeat region with an additional α-helix inserted) (designed binder)
chain: VSPTRSVLPANWRQELESLRNNWRQELESLRNGNGSSSAASSAPAPARSSSASWRDAAPASSAPARSSSASKKA
notes: also called pGBKT7_synthEPYC1 2α-helices 1rep
Turning to B3, the binding result in test [2] is “no binding”.

B4: EPYC1 N-terminus plus first repeat region (N-ter+1rep) (other)
chain: MATISSMRVGAASRVVVSGRVKTVKVAARGSWRESSTATVQASRASSATNRVSPTRSVLPANWRQELESLRNGNGSSSAASSAPAPARSSSASWRDAAPASSAPARSSSASKKA
notes: also called pGBKT7_N-ter + 1rep EPYC1
For B4, the binding result in test [1] is “binds”.

B5: EPYC1 C-terminus (C-ter) (peptide)
chain: GTNPWTGKSKPEIKRTALPADWRKGL
notes: also called C-terminal tail; pGBKT7_C-ter EPYC1
Turning to B5, in test [1], the binding result is “binds”.

B6: synthetic EPYC1 1 rep (first repeat region of EPYC1, one copy) (other)
chain: VSPTRSVLPANWRQELESLRNGNGSSSAASSAPAPARSSSASWRDAAPASSAPARSSSASKKA
notes: also called native 1 rep variant; EPYC1 1 rep (wildtype)
As to B6, the binding result in test [2] was “binds”.

B7: synthetic EPYC1 α-helix knockout B (first repeat region with a point mutation in the α-helix) (designed binder)
chain: B6 chain with E15W
notes: also called pGBKT7_synthEPYC1 α-helix knockout 2 (probably)
For the molecule B7, the binding result in test [2] is “no binding”.

B8: synthetic EPYC1 modified α-helix 1 rep (first repeat region with a G-Q substitution near the α-helix) (designed binder)
chain: B6 chain with G22Q
notes: also called pGBKT7_synthEPYC1 modified α-helix 1rep
For the molecule B8, in test [2], the binding result is recorded as “binds”.

B9: synthetic EPYC1 α-helix knockout A (first repeat region with a point mutation in the α-helix) (designed binder)
chain: B6 chain with L19R
notes: also called pGBKT7_synthEPYC1 α-helix knockout 1 (probably)
Take B9: the binding result in test [2] is on record as “no binding”.

B10: EPYC1 N-terminus and all four repeat regions (N-ter+4reps) (other)
chain: MATISSMRVGAASRVVVSGRVKTVKVAARGSWRESSTATVQASRASSATNRVSPTRSVLPANWRQELESLRNGNGSSSAASSAPAPARSSSASWRDAAPASSAPARSSSASKKAVTPSRSALPSNWKQELESLRSSSPAPASSAPAPARSSSASWRDAAPASSAPARSSSSKKAVTPSRSALPSNWKQELESLRSSSPAPASSAPAPARSSSASWRDAAPASSAPARSSSASKKAVTPSRSALPSNWKQELESLRSNSPAPASSAPAPARSSSASWRDAPASSSSSSADKA
notes: also called pGBKT7_N-ter + 4reps EPYC1
For the molecule B10, in test [1], the binding result is on record as “binds”.

B11: EPYC1::YFP^C (EPYC1 fused at the C-terminus to YFP^C, with 1AAt transit peptide) (other)
chain: MATISSMRVGAASRVVVSGRVKTVKVAARGSWRESSTATVQASRASSATNRVSPTRSVLPANWRQELESLRNGNGSSSAASSAPAPARSSSASWRDAAPASSAPARSSSASKKAVTPSRSALPSNWKQELESLRSSSPAPASSAPAPARSSSASWRDAAPASSAPARSSSSKKAVTPSRSALPSNWKQELESLRSSSPAPASSAPAPARSSSASWRDAAPASSAPARSSSASKKAVTPSRSALPSNWKQELESLRSNSPAPASSAPAPARSSSASWRDAPASSSSSSADKAGTNPWTGKSKPEIKRTALPADWRKGL
notes: Expressed transiently in N. benthamiana with the 1AAt transit peptide at the N-terminus; processing in the plant not determined; also called pB7_1AAtTP::EPYC1::YFP^C; not shown: YFP^C half of split YFP (primer name YFPc155)
For B11, in test [3], the binding result was “no binding”.

B12: EPYC1::YFP^N (EPYC1 fused at the C-terminus to YFP^N, with 1AAt transit peptide) (other)
chain: B11 chain
notes: Expressed transiently in N. benthamiana with the 1AAt transit peptide at the N-terminus; processing in the plant not determined; also called pB7_1AAtTP::EPYC1::YFP^N; not shown: YFP^N half of split YFP (primer name YFPn173)
Turning to B12, in test [4], the binding result is given as “no binding”.

B13: synthetic EPYC1 4 reps (four tandem copies of the first repeat region) (designed binder)
chain: VSPTRSVLPANWRQELESLRNGNGSSSAASSAPAPARSSSASWRDAAPASSAPARSSSASKKAVSPTRSVLPANWRQELESLRNGNGSSSAASSAPAPARSSSASWRDAAPASSAPARSSSASKKAVSPTRSVLPANWRQELESLRNGNGSSSAASSAPAPARSSSASWRDAAPASSAPARSSSASKKAVSPTRSVLPANWRQELESLRNGNGSSSAASSAPAPARSSSASWRDAAPASSAPARSSSASKKA
notes: also called pGBKT7_synthEPYC1 4reps
In the case of B13, the binding result in test [2] and in test [5] was “binds” throughout.

B14: AtCP12::YFP^N (A. thaliana CP12 fused at the C-terminus to YFP^N) (other)
chain: AAPEGGISDVVEKSIKEAQETCAGDPVSGECVAAWDEVEELSAAASHARDKKKADGSDPLEEYCKDNPETNECRTYDN
notes: Negative control of the BiFC assay; also called pICH47732_CP12At::YFP^N; not shown: YFP^N half of split YFP
On to B14, for which the binding result in test [6] is reported as “no binding”.

B15: EPYC1 N-terminus, first to third repeat regions (N-ter+3reps) (other)
chain: MATISSMRVGAASRVVVSGRVKTVKVAARGSWRESSTATVQASRASSATNRVSPTRSVLPANWRQELESLRNGNGSSSAASSAPAPARSSSASWRDAAPASSAPARSSSASKKAVTPSRSALPSNWKQELESLRSSSPAPASSAPAPARSSSASWRDAAPASSAPARSSSSKKAVTPSRSALPSNWKQELESLRSSSPAPASSAPAPARSSSASWRDAAPASSAPARSSSASKKA
notes: also called pGBKT7_N-ter + 3reps EPYC1
Turning to B15, the binding result in test [1] is reported as “binds”.
